B1: human lysozyme: human lysozyme (protein, UniProt P61626 19-148, looked up)
Lysozyme C: KVFERCELARTLKRLGMDGYRGISLANWMCLAKWESGYNTRATNYNAGDRSTDYGIFQINSRYWCNDGKTPGAVNACHLSCSALLQDNIADAVACAKRVVRDPQGIRAWVAWRNRCQNRDVRQYVQGCGV
B2: turkey lysozyme: turkey lysozyme (protein, UniProt P00703 19-147, looked up)
Lysozyme C: KVYGRCELAAAMKRLGLDNYRGYSLGNWVCAAKFESNFNTHATNRNTDGSTDYGILQINSRWWCNDGRTPGSKNLCNIPCSALLSSDITASVNCAKKIASGGNGMNAWVAWRNRCKGTDVHAWIRGCRL
B3: Human lactoferrin: human lactoferrin; lactoferrin supplied by SIGMA (protein, UniProt P02788 20-710, looked up)
Lactotransferrin: GRRRSVQWCAVSQPEATKCFQWQRNMRKVRGPPVSCIKRDSPIQCIQAIAENRADAVTLDGGFIYEAGLAPYKLRPVAAEVYGTERQPRTHYYAVAVVKKGGSFQLNELQGLKSCHTGLRRTAGWNVPIGTLRPFLNWTGPPEPIEAAVARFFSASCVPGADKGQFPNLCRLCAGTGENKCAFSSQEPYFSYSGAFKCLRDGAGDVAFIRESTVFEDLSDEAERDEYELLCPDNTRKPVDKFKDCHLARVPSHAVVARSVNGKEDAIWNLLRQAQEKFGKDKSPKFQLFGSPSGQKDLLFKDSAIGFSRVPPRIDSGLYLGSGYFTAIQNLRKSEEEVAARRARVVWCAVGEQELRKCNQWSGLSEGSVTCSSASTTEDCIALVLKGEADAMSLDGGYVYTAGKCGLVPVLAENYKSQQSSDPDPNCVDRPVEGYLAVAVVRRSDTSLTWNSVKGKKSCHTAVDRTAGWNIPMGLLFNQTGSCKFDEYFSQSCAPGSDPRSNLCALCIGDEQGENKCVPNSNERYYGYTGAFRCLAENAGDVAFVKDVTVLQNTDGNNNEAWAKDLKLADFALLCLDGKRKPVTEARSCHLAMAPNHAVVSRMDKVERLKQVLLHQQAKFGRNGSDCPDKFCLFQSETKNLLFNDNTECLARLHGKTTYEKYLGPQYVAGITNLKKCSTSPLLEACEFLRK
B4: Bovine lactoferrin: bovine lactoferrin; lactoferrin supplied by SIGMA (protein, UniProt P24627 20-708, looked up)
Lactotransferrin: APRKNVRWCTISQPEWFKCRRWQWRMKKLGAPSITCVRRAFALECIRAIAEKKADAVTLDGGMVFEAGRDPYKLRPVAAEIYGTKESPQTHYYAVAVVKKGSNFQLDQLQGRKSCHTGLGRSAGWIIPMGILRPYLSWTESLEPLQGAVAKFFSASCVPCIDRQAYPNLCQLCKGEGENQCACSSREPYFGYSGAFKCLQDGAGDVAFVKETTVFENLPEKADRDQYELLCLNNSRAPVDAFKECHLAQVPSHAVVARSVDGKEDLIWKLLSKAQEKFGKNKSRSFQLFGSPPGQRDLLFKDSALGFLRIPSKVDSALYLGSRYLTTLKNLRETAEEVKARYTRVVWCAVGPEEQKKCQQWSQQSGQNVTCATASTTDDCIVLVLKGEADALNLDGGYIYTAGKCGLVPVLAENRKSSKHSSLDCVLRPTEGYLAVAVVKKANEGLTWNSLKDKKSCHTAVDRTAGWNIPMGLIVNQTGSCAFDEFFSQSCAPGADPKSRLCALCAGDDQGLDKCVPNSKEKYYGYTGAFRCLAEDVGDVAFVKNDTVWENTNGESTADWAKNLNREDFRLLCLDGTRKPVTEAQSCHLAVAPNHAVVSRSDRAAHVKQVLLHQQALFGKNGKNCPDKFCLFKSETKNLLFNDNTECLAKLGGRPTYEEYLGTEYVTAIANLKKCSTSPLLEACAFLTR

Assays:
HSV1 [1] = settings: Current Microbiology 1984; cited from earlier work
HSV1 [2] = assay: Inhibition of HSV1 viral plaques on VERO cells; format: cell-based, Herpes Simplex Virus type 1; settings: for Inhibition (%) of viral plaques with various lysozymes: percentage of the control ± standard deviation; for MDI50 (dose inhibiting 50% of the viral plaques on VERO cells): HSV1
VERO cells = assay: Toxicity expressed as a minimum toxic dose on 50% of the cells; format: cell-based, African green monkey
Protocol: It was carried out as Example 1 except that different amounts of bovine and human lactoferrin were added to the single layers of VERO cells infected with HSV1.
*Toxicity expressed as a minimum toxic dose on 50% of the cells.

| Molecule | antiviral / anti-herpetic (HSV1) activity of lysozymes (HSV1 [1]) | Inhibition (%) of viral plaques with various lysozymes (HSV1 [2]; 0.5 mg/ml) | Inhibition (%) of viral plaques with various lysozymes (HSV1 [2]; 1 mg/ml) | Inhibition (%) of viral plaques with various lysozymes (HSV1 [2]; 2 mg/ml) | Inhibition (%) of viral plaques with various lysozymes (HSV1 [2]; 4 mg/ml) | Inhibition (%) of viral plaques with various lysozymes (HSV1 [2]; 6 mg/ml) | Inhibition (%) of viral plaques with various lysozymes (HSV1 [2]; 8 mg/ml) | MDI50 (dose inhibiting 50% of the viral plaques on VERO cells) (HSV1 [2]) | MTD50 (minimum toxic dose on 50% of the cells) (VERO cells) |
| --- | --- | --- | --- | --- | --- | --- | --- | --- | --- |
| B1 | anti-herpetic (HSV1) activity | 18 ± 3% | 45 ± 3% | 59 ± 4% | 70 ± 4% | 79 ± 6% | 90 ± 5% |  |  |
| B2 | anti-herpetic (HSV1) activity | 10 ± 3% | 45 ± 5% | 55 ± 6% | 68 ± 5% | 80 ± 4% | 89 ± 5% |  |  |
| B3 |  |  |  |  |  |  |  | 0.25 mg/mL | 3 mg/mL |
| B4 |  |  |  |  |  |  |  | 0.25 mg/mL | 2 mg/mL |
